Laboratory results: IntAct's records for PubMed 25543256

B1: Diphthamide biosynthesis protein 3 (Saccharomyces cerevisiae), Q3E840 (parent)
chain: MSTYDEIEIEDMTFEPENQMFTYPCPCGDRFQIYLDDMFEGEKVAVCPSCSLMIDVVFDKEDLAEYYEEAGIHPPEPIAAAA
partner: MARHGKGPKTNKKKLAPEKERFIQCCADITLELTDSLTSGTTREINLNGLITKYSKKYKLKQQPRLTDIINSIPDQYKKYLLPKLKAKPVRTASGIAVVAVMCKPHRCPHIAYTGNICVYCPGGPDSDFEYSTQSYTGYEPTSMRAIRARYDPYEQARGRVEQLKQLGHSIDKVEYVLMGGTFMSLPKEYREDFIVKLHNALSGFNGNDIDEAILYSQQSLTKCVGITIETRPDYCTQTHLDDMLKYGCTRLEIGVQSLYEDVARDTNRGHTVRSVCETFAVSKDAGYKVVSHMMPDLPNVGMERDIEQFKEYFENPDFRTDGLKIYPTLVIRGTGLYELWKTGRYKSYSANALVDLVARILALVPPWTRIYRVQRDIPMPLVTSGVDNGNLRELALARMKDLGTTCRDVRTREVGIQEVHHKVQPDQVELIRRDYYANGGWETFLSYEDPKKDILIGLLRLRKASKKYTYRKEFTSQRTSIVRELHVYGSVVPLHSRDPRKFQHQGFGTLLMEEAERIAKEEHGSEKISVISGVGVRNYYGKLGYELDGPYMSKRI
B2: Protein KTI13 (Saccharomyces cerevisiae), P31386 (parent)
chain: MSCVYAFGSNGQRQLGLGHDEDMDTPQRSVPGDDGAIVRKIACGGNHSVMLTNDGNLVGCGDNRRGELDSAQALRQVHDWRPVEVPAPVVDVACGWDTTVIVDADGRVWQRGGGCYEFTQQHVPLNSNDERIAVYGCFQNFVVVQGTRVYGWGSNTKCQLQEPKSRSLKEPVLVYDTGSVAVDYVAMGKDFMVIVDEGGRIVHASGRLPTGFELKQQQKRHNLVVLCMWTSIHLWNARLNTVESFGRGTHSQLFPQERLDFPIVGVATGSEHGILTTANQEGKSHCYNVYCWGWGEHGNCGPQKGSQPGLQLVGQYSGKPRVFGGCATTWIVL
partner: B1 chain
B3: Diphthamide biosynthesis protein 3 (Saccharomyces cerevisiae), Q3E840 (parent)
chain: B1 chain
partner: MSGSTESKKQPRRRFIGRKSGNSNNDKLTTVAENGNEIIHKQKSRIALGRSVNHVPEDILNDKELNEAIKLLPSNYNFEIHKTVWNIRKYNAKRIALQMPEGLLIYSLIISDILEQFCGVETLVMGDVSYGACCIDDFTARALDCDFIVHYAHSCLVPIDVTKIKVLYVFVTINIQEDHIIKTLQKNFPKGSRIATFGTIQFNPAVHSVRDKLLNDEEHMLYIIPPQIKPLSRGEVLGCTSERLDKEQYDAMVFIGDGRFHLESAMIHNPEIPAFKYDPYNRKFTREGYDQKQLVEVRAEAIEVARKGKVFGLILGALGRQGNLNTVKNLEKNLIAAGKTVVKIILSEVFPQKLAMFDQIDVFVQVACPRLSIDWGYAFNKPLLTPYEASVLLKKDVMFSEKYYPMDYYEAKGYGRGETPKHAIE
B4: Diphthamide biosynthesis protein 3 (Saccharomyces cerevisiae), Q3E840 (parent)
chain: B1 chain
partner: B2 chain

Variants of: B1
Settings: with elp3_yeast ELP3, Q02908

Row | Variant | effect of a mutation on the interaction
1 | C50S | disrupting interaction strength

Variants of: B2
Settings: with dph3_yeast KTI11, Q3E840

Row | Variant | effect of a mutation on the interaction
2 | H297A | increasing interaction strength
3 | E296A | increasing interaction strength
4 | W229A | decreasing interaction strength

Variants of: B2
Settings: with dph3_yeast KTI11, Q3E840
Remark: another data set of the same source

Row | Variant | effect of a mutation on the interaction
5 | W229A | disrupting interaction strength
6 | W229C | disrupting interaction strength
7 | W294A | decreasing interaction strength

Variants of: B2
Settings: with dph3_yeast KTI11, Q3E840
Remark: another data set of the same source

Row | Variant | effect of a mutation on the interaction
8 | W229C | decreasing interaction strength

Variants of: B3
Settings: with dph1_yeast DPH1, P40487

Row | Variant | effect of a mutation on the interaction
9 | C47S | disrupting interaction strength
10 | C50S | disrupting interaction strength
11 | C27S | disrupting interaction strength
12 | C25S | disrupting interaction strength

Variants of: B4
Settings: with ats1_yeast ATS1, P31386

Row | Variant | effect of a mutation on the interaction
13 | E8A | decreasing interaction strength
14 | Y4A | disrupting interaction strength
15 | D5A | disrupting interaction strength

Variants of: B4
Settings: with ats1_yeast ATS1, P31386
Remark: another data set of the same source

Row | Variant | effect of a mutation on the interaction
16 | Y4A | decreasing interaction strength
17 | I7A;I9A | decreasing interaction strength
18 | Y4A;D5A | decreasing interaction strength

Variants of: B4
Settings: with ats1_yeast ATS1, P31386
Remark: another data set of the same source

Row | Variant | effect of a mutation on the interaction
19 | D5A | decreasing interaction strength
20 | E6A;E8A | decreasing interaction strength
